{
  "source": "ChEMBL document CHEMBL3526122",
  "about": "“Identification of UDP-glucuronosyltransferases responsible for the glucuronidation of darexaban, an oral factor Xa inhibitor, in human liver and intestine” (Drug Metab Dispos, 2012)",
  "key": {"Liver microsome": {"test_system": "Liver microsome", "assay": "Drug level in human liver microsomes treated with darexaban at 30 uM after 10 mins by LC-MS/MS analysis in presence of UDPGA", "assay_type": "ADME"}, "[1]": {"assay": "Drug level in human intestinal microsomes treated with darexaban at 30 uM after 10 mins by LC-MS/MS analysis in presence of UDPGA", "assay_type": "ADME, Intestine, Microsome"}, "[2]": {"substrate": "COc1ccc(C(=O)Nc2cccc(O)c2NC(=O)c2ccc(N3CCCN(C)CC3)cc2)cc1", "assay": "Activity of human recombinant UGT1A10 expressed in baculovirus-infected insect cells assessed as enzyme-mediated glucuronidation after 10 mins in presence of UDPGA", "assay_type": "ADME"}, "[3]": {"substrate": "COc1ccc(C(=O)Nc2cccc(O)c2NC(=O)c2ccc(N3CCCN(C)CC3)cc2)cc1", "assay": "Activity of human recombinant UGT1A7 expressed in baculovirus-infected insect cells assessed as enzyme-mediated glucuronidation after 10 mins by Michaelis-Menten plot analysis in presence of UDPGA", "assay_type": "ADME"}, "[4]": {"substrate": "COc1ccc(C(=O)Nc2cccc(O)c2NC(=O)c2ccc(N3CCCN(C)CC3)cc2)cc1", "assay": "Activity of human recombinant UGT1A8 expressed in baculovirus-infected insect cells assessed as enzyme-mediated glucuronidation after 10 mins in presence of UDPGA", "assay_type": "ADME"}, "[5]": {"substrate": "COc1ccc(C(=O)Nc2cccc(O)c2NC(=O)c2ccc(N3CCCN(C)CC3)cc2)cc1", "assay": "Activity of human recombinant UGT1A9 expressed in baculovirus-infected insect cells assessed as enzyme-mediated glucuronidation after 5 mins by Michaelis-Menten plot analysis in presence of UDPGA and 2% fatty acid free BSA", "assay_type": "ADME"}, "[6]": {"substrate": "COc1ccc(C(=O)Nc2cccc(O)c2NC(=O)c2ccc(N3CCCN(C)CC3)cc2)cc1", "assay": "Activity of human recombinant UGT1A9 expressed in baculovirus-infected insect cells assessed as enzyme-mediated glucuronidation after 5 mins by Michaelis-Menten plot analysis in presence of UDPGA and 0.1% fatty acid free BSA", "assay_type": "ADME"}, "[7]": {"substrate": "COc1ccc(C(=O)Nc2cccc(O)c2NC(=O)c2ccc(N3CCCN(C)CC3)cc2)cc1", "assay": "Activity of human recombinant UGT1A9 expressed in baculovirus-infected insect cells assessed as enzyme-mediated glucuronidation after 5 mins by Michaelis-Menten plot analysis in presence of UDPGA and absence of fatty acid free BSA", "assay_type": "ADME"}, "[8]": {"substrate": "COc1ccc(C(=O)Nc2cccc(O)c2NC(=O)c2ccc(N3CCCN(C)CC3)cc2)cc1", "assay": "Activity of human recombinant UGT1A9 expressed in baculovirus-infected insect cells assessed as enzyme-mediated glucuronidation after 5 mins by Michaelis-Menten plot analysis in presence of UDPGA", "assay_type": "ADME"}, "[9]": {"substrate": "COc1ccc(C(=O)Nc2cccc(O)c2NC(=O)c2ccc(N3CCCN(C)CC3)cc2)cc1", "assay": "Activity of human recombinant UGT1A9 expressed in baculovirus-infected insect cells assessed as enzyme-mediated glucuronidation after 5 mins by Michaelis-Menten plot analysis in presence of UDPGA and 0.5% fatty acid free BSA", "assay_type": "ADME"}},
  "data": [
    {"molecule": "COc1ccc(C(=O)Nc2cccc(O[C@@H]3O[C@H](C(=O)O)[C@@H](O)[C@H](O)[C@H]3O)c2NC(=O)c2ccc(N3CCCN(C)CC3)cc2)cc1", "values": [
      {"measurement": "Drug metabolism", "setting": "Liver microsome", "result": "metabolite_detected"},
      {"measurement": "Drug metabolism", "setting": "[1]", "result": "metabolite_detected"}
    ]},
    {"molecule": "UDP-glucuronosyltransferase 1A10 (Homo sapiens) (protein) MARAGWTSPVPLCVCLLLTCGFAEAGKLLVVPMDGSHWFTMQSVVEKLILRGHEVVVVMPEVSWQLERSLNCTVKTYSTSYTLEDQNREFMVFAHAQWKAQAQSIFSLLMSSSSGFLDLFFSHCRSLFNDRKLVEYLKESSFDAVFLDPFDTCGLIVAKYFSLPSVVFTRGIFCHHLEEGAQCPAPLSYVPNDLLGFSDAMTFKERVWNHIVHLEDHLFCQYLFRNALEIASEILQTPVTAYDLYSHTSIWLLRTDFVLDYPKPVMPNMIFIGGINCHQGKPLPMEFEAYINASGEHGIVVFSLGSMVSEIPEKKAMAIADALGKIPQTVLWRYTGTRPSNLANNTILVKWLPQNDLLGHPMTRAFITHAGSHGVYESICNGVPMVMMPLFGDQMDNAKRMETKGAGVTLNVLEMTSEDLENALKAVINDKSYKENIMRLSSLHKDRPVEPLDLAVFWVEFVMRHKGAPHLRPAAHDLTWYQYHSLDVIGFLLAVVLTVAFITFKCCAYGYRKCLGKKGRVKKAHKSKTH", "values": [
      {"measurement": "Km", "setting": "[2]", "result": 34.2, "unit": "µM"},
      {"measurement": "Vmax", "setting": "[2]", "result": 0.00136, "unit": "µmol/min"}
    ]},
    {"molecule": "UDP-glucuronosyltransferase 1A7 (Homo sapiens) (protein) MARAGWTGLLPLYVCLLLTCGFAKAGKLLVVPMDGSHWFTMQSVVEKLILRGHEVVVVMPEVSWQLGRSLNCTVKTYSTSYTLEDQDREFMVFADARWTAPLRSAFSLLTSSSNGIFDLFFSNCRSLFNDRKLVEYLKESCFDAVFLDPFDACGLIVAKYFSLPSVVFARGIFCHYLEEGAQCPAPLSYVPRLLLGFSDAMTFKERVWNHIMHLEEHLFCPYFFKNVLEIASEILQTPVTAYDLYSHTSIWLLRTDFVLEYPKPVMPNMIFIGGINCHQGKPVPMEFEAYINASGEHGIVVFSLGSMVSEIPEKKAMAIADALGKIPQTVLWRYTGTRPSNLANNTILVKWLPQNDLLGHPMTRAFITHAGSHGVYESICNGVPMVMMPLFGDQMDNAKRMETKGAGVTLNVLEMTSEDLENALKAVINDKSYKENIMRLSSLHKDRPVEPLDLAVFWVEFVMRHKGAPHLRPAAHDLTWYQYHSLDVIGFLLAVVLTVAFITFKCCAYGYRKCLGKKGRVKKAHKSKTH", "values": [
      {"measurement": "Km", "setting": "[3]", "result": 59.1, "unit": "µM"},
      {"measurement": "Vmax", "setting": "[3]", "result": 0.000725, "unit": "µmol/min"}
    ]},
    {"molecule": "UDP-glucuronosyltransferase 1A8 (Homo sapiens) (protein) MARTGWTSPIPLCVSLLLTCGFAEAGKLLVVPMDGSHWFTMQSVVEKLILRGHEVVVVMPEVSWQLGKSLNCTVKTYSTSYTLEDLDREFMDFADAQWKAQVRSLFSLFLSSSNGFFNLFFSHCRSLFNDRKLVEYLKESSFDAVFLDPFDACGLIVAKYFSLPSVVFARGIACHYLEEGAQCPAPLSYVPRILLGFSDAMTFKERVRNHIMHLEEHLFCQYFSKNALEIASEILQTPVTAYDLYSHTSIWLLRTDFVLDYPKPVMPNMIFIGGINCHQGKPLPMEFEAYINASGEHGIVVFSLGSMVSEIPEKKAMAIADALGKIPQTVLWRYTGTRPSNLANNTILVKWLPQNDLLGHPMTRAFITHAGSHGVYESICNGVPMVMMPLFGDQMDNAKRMETKGAGVTLNVLEMTSEDLENALKAVINDKSYKENIMRLSSLHKDRPVEPLDLAVFWVEFVMRHKGAPHLRPAAHDLTWYQYHSLDVIGFLLAVVLTVAFITFKCCAYGYRKCLGKKGRVKKAHKSKTH", "values": [
      {"measurement": "Km", "setting": "[4]", "result": 11.8, "unit": "µM"},
      {"measurement": "Vmax", "setting": "[4]", "result": 0.000608, "unit": "µmol/min"}
    ]},
    {"molecule": "UDP-glucuronosyltransferase 1A9 (Homo sapiens) (protein) MACTGWTSPLPLCVCLLLTCGFAEAGKLLVVPMDGSHWFTMRSVVEKLILRGHEVVVVMPEVSWQLGRSLNCTVKTYSTSYTLEDLDREFKAFAHAQWKAQVRSIYSLLMGSYNDIFDLFFSNCRSLFKDKKLVEYLKESSFDAVFLDPFDNCGLIVAKYFSLPSVVFARGILCHYLEEGAQCPAPLSYVPRILLGFSDAMTFKERVRNHIMHLEEHLLCHRFFKNALEIASEILQTPVTEYDLYSHTSIWLLRTDFVLDYPKPVMPNMIFIGGINCHQGKPLPMEFEAYINASGEHGIVVFSLGSMVSEIPEKKAMAIADALGKIPQTVLWRYTGTRPSNLANNTILVKWLPQNDLLGHPMTRAFITHAGSHGVYESICNGVPMVMMPLFGDQMDNAKRMETKGAGVTLNVLEMTSEDLENALKAVINDKSYKENIMRLSSLHKDRPVEPLDLAVFWVEFVMRHKGAPHLRPAAHDLTWYQYHSLDVIGFLLAVVLTVAFITFKCCAYGYRKCLGKKGRVKKAHKSKTH", "values": [
      {"measurement": "Km", "setting": "[5]", "result": 18.3, "unit": "µM"},
      {"measurement": "Km", "setting": "[6]", "result": 22.4, "unit": "µM"},
      {"measurement": "Km", "setting": "[7]", "result": 35.5, "unit": "µM"},
      {"measurement": "Km", "setting": "[8]", "result": 58.2, "unit": "µM"},
      {"measurement": "Km", "setting": "[9]", "result": 22.7, "unit": "µM"}
    ]}
  ]
}
